The series deals with the molecule itself. As to the kind of experiment: native gel or EMSA.

B1: MBP-Rep78 (adeno-associated virus type 2 Rep78 fused to MBP) (enzyme)
chain: MPGFYEIVIKVPSDLDGHLPGISDSFVNWVAEKEWELPPDSDMDLNLIEQAPLTVAEKLQRDFLTEWRRVSKAPEALFFVQFEKGESYFHMHVLVETTGVKSMVLGRFLSQIREKLIQRIYRGIEPTLPNWFAVTKTRNGAGGGNKVVDECYIPNYLLPKTQPELQWAWTNMEQYLSACLNLTERKRLVAQHLTHVSQTQEQNKENQNPNSDAPVIRSKTSARYMELVGWLVDKGITSEKQWIQEDQASYISFNAASNSRSQIKAALDNAGKIMSLTKTAPDYLVGQQPVEDISSNRIYKILELNGYDPQYAASVFLGWATKKFGKRNTIWLFGPATTGKTNIAEAIAHTVPFYGCVNWTNENFPFNDCVDKMVIWWEEGKMTAKVVESAKAILGGSKVRVDQKCKSSAQIDPTPVIVTSNTNMCAVIDGNSTTFEHQQPLQDRMFKFELTRRLDHDFGKVTKQEVKDFFRWAKDHVVEVEHEFYVKKGGAKKRPAPSDADISEPKRVRESVAQPSTSDAEASINYADRYQNKCSRHVGMNLMLFPCRQCERMNQNSNICFTHGQKDCLECFPVSESQPVSVVKKAYQKLCYIHHIMGKVPDACTACDLVNVDLDDCIFEQ
With B1, the binding result is “binds”.

For the origin of these results see paper PMC2873105 (Virology, 2010).
